Assay [1] concerns the target T1, soluble human GPNMB (recombinant extracellular domain) (human, UniProt Q14956 23-498).
T1 construct: also called huGPNMB; recombinant human GPNMB extracellular domain; not shown: C-terminal polyhistidine or Avi-His tag
T1 sequence: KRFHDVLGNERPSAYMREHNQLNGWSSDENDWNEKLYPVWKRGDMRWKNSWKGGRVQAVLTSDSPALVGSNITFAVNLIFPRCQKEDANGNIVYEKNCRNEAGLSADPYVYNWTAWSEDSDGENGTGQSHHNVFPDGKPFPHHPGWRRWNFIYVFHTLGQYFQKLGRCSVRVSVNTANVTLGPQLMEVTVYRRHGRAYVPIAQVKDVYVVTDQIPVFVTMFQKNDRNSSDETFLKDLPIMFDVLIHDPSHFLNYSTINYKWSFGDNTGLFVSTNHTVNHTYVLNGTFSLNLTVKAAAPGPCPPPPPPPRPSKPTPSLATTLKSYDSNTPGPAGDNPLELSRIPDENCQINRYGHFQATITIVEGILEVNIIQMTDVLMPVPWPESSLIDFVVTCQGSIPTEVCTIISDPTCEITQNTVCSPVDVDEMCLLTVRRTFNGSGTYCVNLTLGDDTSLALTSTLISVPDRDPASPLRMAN
Briefly: SPR Biacore, IgG captured. (SPR reads the build-up and loss of mass on a sensor chip optically.)

For assay [2], the target named is T2, soluble cynomolgus GPNMB (recombinant extracellular domain) (cynomolgus, UniProt Q14956 23-499 (human entry), limits assumed).
T2 chain: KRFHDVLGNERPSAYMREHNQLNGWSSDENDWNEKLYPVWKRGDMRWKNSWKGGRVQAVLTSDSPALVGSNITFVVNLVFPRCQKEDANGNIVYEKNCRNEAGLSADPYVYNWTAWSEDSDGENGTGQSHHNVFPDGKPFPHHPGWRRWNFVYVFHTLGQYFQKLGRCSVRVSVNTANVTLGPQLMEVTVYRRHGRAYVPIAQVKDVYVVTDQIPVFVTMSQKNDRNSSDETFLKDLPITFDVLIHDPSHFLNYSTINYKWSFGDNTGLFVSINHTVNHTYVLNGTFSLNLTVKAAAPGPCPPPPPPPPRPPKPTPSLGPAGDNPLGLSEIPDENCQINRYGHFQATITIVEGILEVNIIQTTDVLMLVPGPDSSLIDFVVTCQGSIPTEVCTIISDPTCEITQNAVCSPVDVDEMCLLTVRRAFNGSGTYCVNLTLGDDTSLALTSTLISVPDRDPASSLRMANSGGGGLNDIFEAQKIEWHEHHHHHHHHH
As to the kind of experiment: SPR Biacore, IgG captured.

For assay [3], the target named is T3, full-length untagged human GPNMB expressed on cells (human, UniProt Q14956 23-572).
T3 construct: also used here for GPNMB on human monocyte-derived macrophages in the functional assays; also called huGPNMB; Freestyle293-huGPNMB+
T3 sequence: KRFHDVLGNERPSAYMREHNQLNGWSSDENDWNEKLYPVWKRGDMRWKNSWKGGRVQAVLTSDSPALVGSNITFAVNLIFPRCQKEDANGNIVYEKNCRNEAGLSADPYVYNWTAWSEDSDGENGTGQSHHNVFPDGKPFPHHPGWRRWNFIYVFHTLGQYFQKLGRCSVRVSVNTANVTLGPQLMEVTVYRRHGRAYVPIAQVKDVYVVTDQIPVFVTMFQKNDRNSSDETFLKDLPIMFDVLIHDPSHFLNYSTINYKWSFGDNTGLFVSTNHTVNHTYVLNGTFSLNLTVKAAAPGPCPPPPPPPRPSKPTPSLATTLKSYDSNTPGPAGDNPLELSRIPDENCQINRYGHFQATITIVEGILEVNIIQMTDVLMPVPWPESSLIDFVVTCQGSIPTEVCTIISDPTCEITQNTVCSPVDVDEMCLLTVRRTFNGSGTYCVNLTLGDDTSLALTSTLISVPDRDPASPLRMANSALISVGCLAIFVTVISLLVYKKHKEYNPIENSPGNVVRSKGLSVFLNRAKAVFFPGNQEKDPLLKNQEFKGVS
As to the kind of experiment: FACS titration, FS293-huGPNMB+ cells.

What is called Kd is the concentration at which binding is half-saturated. The koff is the first-order rate constant of dissociation. For orientation: kon means a measure of how fast the partners come together. As a reminder, the EC50 is the concentration that produces a half-maximal response. A higher EC50 goes with a less potent agent.

B1: anti-GPNMB antibody GPN-86 (antibody, V domains shown)
VH: QVQLQESGPGLVKPSETLSLTCTVSGISITTGNYRWSWIRQPPGKGLEWIGYIDYSGTITYNPSLKSRVTITRDTSKNQFSLELSSVTAADTAVYYCARDLTHWYFDVWGQGTLVTVSS
VL: DIVMTQSPDSLAVSLGERATINCKSSRSVDYYGIGFLNWYQQKPGQPPKLLIYATSKQGSGVPDRFSGSGSGTDFTLTISSLQAEDVAVYYCQQQKEVPPTFGGGTKVEIK
Take B1: in assay [1], the Kd worked out at 4.5 nM, the koff stood at 0.0012 s⁻¹ and the kon was 260000 M⁻¹ s⁻¹. For the same molecule, in assay [2], the Kd stood at 5.5 nM, the koff is 0.0011 s⁻¹ and the kon amounted to 190000 M⁻¹ s⁻¹. The midpoint of the response in assay [3], the EC50, lay at 0.203 nM.
